Laboratory results as given in a protein production outcome set (Wang et al. 2014).

Experiment: label from the status in PepcDB records
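Also: failed if final PepcDB status was selected cloned or expressed and not failed if soluble or beyond.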

Q: Which protein production does the source give for “MIQVPASFDIQGHRGCRGLLPENTIAAFTKALLLGVTTLEFDLVISKDNRVVVSHDTFFHHEITMMVDGEDVTEANEKNFNLYAMNYADIKEIDVGMKTHPRFKSQKKVPAVKPLFRELIETAEKLSAKIQYNGEIKSTVEGDNIDHPNIALFCDLVVAEIKKAHITDRFTLQSFDVRALEYMHSQYPDIKLSYLVETKGTLKKQLEKLSFTPAVYSPDVTLVSKKDIDAAHKLGMRVIPWTVNTKEEIETLISLGVDGIITDYPDLFFEK” here?
A: not failed

Q: With “AGKPDWDWQPAPKNEALIAAVSAAAQEGLNAAYQIREKQARTTKLREVYAAVQAAMAEQAAQAGQPAPDSVGVDNILFDLEARIVRSQILNGEPRIDGRDTRTVRP” as the sequence, how does the protein production read?
A: not failed

Q: With “MGYLKNHWWKRWIRRRGCKLAGGPASVGKRTTLVLEERVELGHLRIVPPRLEIGAYSYVRSGTDLSLVASIGRFCSIGSDCFIGQEKHTHPSDWVSSHPFQHTGTALRYEPALSYAEIGHDVWIGHSAMVMEGVKVGTGAIIATRAVVTRDVPPYAIVAGTPAQVIRYRHPPEIIEGLLASRWWELDSAFLTGLPLDRPREFLAALEAREAPRAAYRRMTITRQGCRLDLEHHHHHH” as the sequence, how does the protein production read?
A: failed

Q: Which protein production does the source give for “TAALSGAANLGAPLSNDFCTISLSDKWRGWDEIEEKLRAAAISGFVVVLYNCWRDYERAVDVLREERADDVPAAIVNDSGRGEAGRNLDDETETITTLGELPEHDDKVGGMGSSIVVGTHETEV” here?
A: failed

Q: With “MSIEPVFILVRPQMGENIGAAARAMLNFGLGRLRIVDPRDGWPNPKAVAMASGAGRLLDHAGLFPTVAEAIRDCDYVFATTARGRELTKPVMTPERAMAHGRALTGEGRRVGILFGPERTGLENEDVALANAIVTVPVNPEFFSLNLAQCVLLLAYEWRRQHDETPPEVIDMARVDFASGLEVEKLGD” as the sequence, how does the protein production read?
A: failed

Q: Which protein production does the source give for “MSRQANRGTESKKMSSELFTLTYGALVTQLCKDYENDEDVNKQLDRMGYNIGVRLIEDFLARSNVGRCHDFRETADVIAKVAFKMYLGITPSITNWSPAGDEFSLILENNPLVDFVELPDNHSALIYSNLLCGVLRGALEMVQMAVEAKFVQDTLKGDGVTEIRMRFIRRIEDNLPAGEE” here?
A: not failed

Q: Which protein production does the source give for “MRPRRWFAILVCLCCLVTAAWPAEVKGENKKKERLAVVTVDRVNVRQGPGVPYRPLANVHRGETYRLIDIKDGWLKIEWKKNKIGWIAASYAAPVREMEIVQEDRLRLRQEPGLDGRIIGHLAQGDQVIVIKEKGEWKQIVTKKAVGWVAASYLADAESPTGSRQTGVVTADSLNVRVAPSLDAERIGRLLHGERVEIVETKRDWYKIVTRSGLGGWVAAEYIEMKNGQAVGNPEEAVAESASPAAVDLVTIQGNGPRQYVKKWTRTPVQVLAGKTIVLDAGHGGKDGGAESVNGVTEKTLTMETAERLKEKLETYGARVVLTRVNDDYVPLSARVATARLYQADAFISLHYDSAEDEDASGITAYYYDRFADYGLAQSFQGPFSKLSALPFRGLAFGNYYVLRENERPSVLLELGYLSNRSDAEVVATDSYQETVTTAIVNAVRHYFQ” here?
A: failed

Q: With “MNRLCVLGLLIGLSGSPALAAGQGESGNPPATDKERFIASLMARMSNAEKIGQLRLVSVGADHPKEALMADIRAGKVGAIFNTVTRPDIRAMQDQVRHSRLKIPLFHAYDVAHGHRTIFPISLGLAASWDPEVVARSARISALEASADGLDMSFSPMVDITRDARWGRVSEGFGEDTYLTSLLSGVMVRAYQGSNLAAPDSIMAAVKHFALYGAAEGGRDYNTVDMSLPRMFQDYLPPYKAAVDAGAGAVMVSLNTINGVPATANRWLLTDLLRQQWGFKGLTISDHGAVKELIKHGLAGNERDATRLAIQAGVDMNMNDDLYSTWLPKLLAAGEIDQADIDRACRDVLAAKYDLGLFADPYRRLGK” as the sequence, how does the protein production read?
A: failed

Q: Which protein production does the source give for “MYRHDVSNEEKDIAVSVIALTAAFAIANRFRSPYGPFFILAVSFLVAVTAFLMHELAHRYVARSYGGIAYFKMWPLGLLLALITSLLGFIFAAPGAVNIGGIYRRDQIGKTSLAGPAMNIFLGILFYAISLFTLIPVAIAIFRYVAEMNFWFGFFNLLPIPPLDGYKVFSWDLYVYIVSVVIALVFVVLFVF” here?
A: failed

Q: Which protein production does the source give for “MTDSTTLQQPAGANNLYGGLLSAQGLDLDQFETIHTQVQAWKTTAGTDVKFVEARELPIVDVILRFKAGTTQDTLYPGLAALTLSMLDEGSQAYTAAQQAEHLERLGAVMEKQVRLEHATLRLRSLSPPSLLDPALAVFTDLVAHPVFHPMALTRIKRQLLQNHASRERLPILRARSEVFRHLFNGHPYGNPLGSTAQGIEAITPEDLRAFHQRAYSASNLEMVVVGDLSPGQAQAISQQISQALPQGWSATELPAAPSAPSATIAVEQAGASSAILLALPMNVPANDPEFLALALASAVLGEGLESRLMVELRQRRGLTYGVHTHVLPLSAGGLFTVEWEVAPQHVQGTQALVETLLQAFIDEGPTQLELQLARKQLEGQLLRGIAQNRQLATLLTEVTHQRQPADHLDTYSARIAELTPADVRAVMQRRLALSHKVLVSVGPGVQQQPLPAPDQ” here?
A: failed

Q: For “MVKSYQRFEQAAAFGVIASNANCVWIPASSGNSNGSGPGQLITSALEDVNIWDIKTGDLVSKLSDGLPPGASDARGAKPAECTYLEAHKDTDLLAVGYADGVIKVWDLMSKTVLLNFNGHKAAITLLQFDGTGTRLISGSKDSNIIVWDLVGEVGLYKLRSHKDSITGFWCQGEDWLISTSKDGMIKLWDLKTHQCIETHIAHTGECWGLAVKDDLLITTGTDSQVKIWKLDIENDKMGGKLTEMGIFEKQSKQRGLKIEFITNSSDKTSFFYIQNADKTIETFRIRKEEEIARGLKKREKRLKEKGLTEEEIAKSIKESYSSFILHPFQTIRSLYKIKSASWTTVSSSKLELVLTTSSNTIEYYSIPYEKRDPTSPAPLKTHTIELQGQRTDVRSIDISDDNKLLATASNGSLKIWNIKTHKCIRTFECGYALTCKFLPGGLLVILGTRNGELQLFDLASSSLLDTIEDAHDAAIWSLDLTSDGKRLVTGSADKTVKFWDFKVENSLVPGTKNKFLPVLKLHHDTTLELTDDILCVRVSPDDRYLAISLLDNTVKVFFLDSMKFYLSLYGHKLPVLSIDISFDSKMIITSSADKNIKIWGLDFGDCHKSLFAHQDSIMNVKFLPQSHNFFSCSKDAVVKYWDGEKFECIQKLYAHQSEVWALAVATDGGFVVSSSHDHSIRIWEETEDQVFLEEEKEKELEEQYEDTLLTSLEEGNGDDAFKADASGEGVEDEASGVHKQTLESLKAGERLMEALDLGIAEIEGLEAYNRDMKLWQRKKLGEAPIKPQGNAVLIAVNKTPEQYIMDTLLRIRMSQLEDALMVMPFSYVLKFLKFIDTVMQNKTLLHSHLPLICKNLFFIIKFNHKELVSQKNEELKLQINRVKTELRSALKSTEDDLGFNVQGLKFVKQQWNLRHNYEFVDEYDQQEKESNSARKRVFGTVI”, which protein production is on record?
A: failed

Q: With “MSSLVQSVDWLAIAPPTLAAVVGLVVLVADLFIGDHKKALLGWVSVAGLAASALLLLPLLDGDRATFCLTGDANTCSYTADHFTLAIQFLVLGGALLAALLSVTALKDADREIPEGEFWFLLLSSAAGAALLPASRDLATLIVALEVASLPAFALVGIKRGDKKSSEAALKFFLSSVTATAVSLMGVSFVYASTGTLYLTEIARKIQHVDGQLHTLAQTGVVLTLVGFAFKTAAVPFHFWVPDTYVGAPLPIAAYLSVVGKAVGFSGLILVTVVAFPSYADVWGPALAALAALTMTVGNVGALRQQATRAYSAVRLLAWSSVGQAGYLLVPIAAAAYSKDAEKAIGSTVAYALMYAAVNLGAFAVAALVGRTKVLNRVSDYRGLYASNPLAALLLGFFLLCLAGLPPGIIGLFAKVTVFSAAVDAGLGWLAVVMAVNVVIALFYYLQWTTLLFRAPEGEPEKHRVPAPLTAAIALTAVLGVALSGAPQLVLRFSDTGLF” as the sequence, how does the protein production read?
A: failed

Q: For “MSSLKGKRIGFGLTGSHCTYEAVFPQIEELVNEGAEVRPVVTFNVKSTNTRFGEGAEWVKKIEDLTGYEAIDSIVKAEPLGPKLPLDCMVIAPLTGNSMSKLANAMTDSPVLMAAKATIRNNRPVVLGISTNDALGLNGTNLMRLMSTKNIFFIPFGQDDPFKKPNSMVAKMDLLPQTIEKALMHQQLQPILVENYQGND”, which protein production is on record?
A: failed

Q: Which protein production does the source give for “MPRWLIQHSPNTLTPEEKSHLAQQITQAYVGFGLPAFYVQVHFIEQPAGTSFIGGEQHPNFVALTIYHLARTMTSDEQRQGFLKRIDAFLTPMFEPKGIDWEYFVTEAPRDLWKINGLAPPAAGSEEEKVWVRENRPVRF” here?
A: not failed

Q: With “MSISRRDFNKLLLAGAAGSAFGLFGSGNTAFAARKRVVVIGGGFGGAATAKYLKKLDPTLAVTLIEPKPAFVTCPFSNWVLGGLRTMKDITHTYTALRTRHGVNVIADRVVSVDAAKGTLRLAGGRVIGYDRLVVSPGIDFKYDTIPGYSQKIAKSKMPHAWQAGPQTILLHRQLQAMKNGGTVVICPPDNPFRCPPGPYERASLIAYYLKQHKPKSKIVILDAKEKFSKQGLFTKGWESRYPGMIELRGSTGGGKVLGVDAKAMTVETDLGAVKGDVINVIPAQKAGKIAFEAGLTNEKGWCPVNPSSFESTIHQGIHVIGDACIAGAMPKSGFAASSQGKVAAVAIINLLRGQEPAPPSLVNTCYSLIGPKYGVSVAGVYQLSPTGIVEIPGSGGRLRPMPATNSWNRRRFSPKAGTPISARISGDKPLDSCGVPAVNHQAPLPLTHKATPDCRKR” as the sequence, how does the protein production read?
A: failed

Q: For “MLETAALAAGMSWASGIRLYLAVLTAGVLARLGWLDLPPGLHVLESWWVIGIAGAMAAAEFVADKVPGFDTVWDGIQTFIRIPAGAILAAAAFGQLDPQWMVAAGLIGGTLAGTAHATKAGTRALINVSPEPFSNWVASFTEDITTAGGLLLAFFLPVVFLILLVLFLITAAWLLPKLWRGVRRLHAGLRGNADNQRP”, which protein production is on record?
A: failed

Q: With “MYQVAICDPIHAKGIQILEAQKDIVLHDYSKCPKKELLEKLTPMDALITRSMTPITSDFLKPLTHLKSIVRAGVGVDNIDLESCSQKGIVVMNIPTANTIAAVELTMAHLINAVRSFPCANDQIKHQRLWKREDWYGTELKNKKLGIIGFGNIGSRVGIRAKAFEMEVLAYDPYIPSSKATDLGVIYTKNFEDILQCDMITIHTPKNKETINMIGAKEIERMKKGVILLNCARGGLYNEDALYEALETKKVRWLGIDVFSKEPGIHNKLLDLPNVYATPHIGANTLESQEEISKQAAQGVMESLRGSSHPHALNLPMQAFDASAKAYLNLAQKLGYFSSQIHKGVCQKIELSLCGEINQFKDALVAFMLVGVLKPVVGDKINYINAPFVAKERGIEIKVSLKESASPYKNMLSLTLNAANGTISVSGTVFEEDILKLTEIDGFHIDIEPKGKMLLFRNTDIPGVIGSVGNAFARHGINIADFRLGRNTQKEALALIIVDEEVSLEVLEELKNIPACLSVHYVVI” as the sequence, how does the protein production read?
A: failed

Q: With “MIIPMNNKHPLPTPLVSIIIPVYNVEKYLYRCVKSILSQDYYDYEIILVDDGSTDGSGMICDELTEQHGHISVIHKPNGGQGSARNAGLNHAKGKYIWFIDSDDYISPHSLSVIMSQITQGDFDALFFPYIKSNGNILIGEAVGKYHAGVYRGQQLLLEGLVNMSMCTIVSLRSRWIDNRIFFREDIHFEDFEINPRVLKFLERAIFLDSNIIPYIYYTRLGSTMNQLDPQKRMRQTEDFLRIEKSWKEWFNLDSPEPNSYDMLMLRTGTNMLHRNLLNFVRNSNFSISTKLKLYAQYRKKGVFSWFYNGYRRDPYVGCTSVRVFWNTIGRSYILFSLFSIVEEIWKKIRK” as the sequence, how does the protein production read?
A: failed

Q: Which protein production does the source give for “MNTMVELRKLIVFLLSFTFLLYLLYVGINISKKLRIRRSPFFLMISGVGLITLGTFLDAIDKFIDVGIKNVIAACFTFGAILFVVFIIFLSNNFVCTVSLLYEDANMDKMTGAYNRKGINEIFQRSIAKQNSFYLMLFDLDETKRLNDKYGHAVGDKYIIGASAIIKDTIGNKGFVGRIGGDEFIALLKLENEVDVEKIKKLIKDQFCESFKQYGANISIGYSRFKEDGQEFEEIFQIADKNMYDDKKSNKKNKACF” here?
A: failed

Q: With “MTEARKIPKPSFPYGSPGELNSFLPYLLTRITHIWSSELNQALASEKLPTPKLRLLSSLSAYGELTVGQLATLGVMEQSTTSRTVDQLVDEGLAARSISDADQRKRTVVLTRKGKKKLAEISPLINDFHAELVGNVDPDKLQTCIEVLGEILKGKTDY” as the sequence, how does the protein production read?
A: not failed
